Drawing on US20170000857A1, this text covers 2-NBDG absorption in mature adipocytes in absence of INS (times (vs control)) for one substance.

This assay addresses ALMS1 (Alstrom syndrome protein 1) (human) (UniProt Q8TCU4). In words: cell-based or functional assay.
Chain of UniProt Q8TCU4 (Q8TCU4 other isoform, or with tags, fused parts or gaps limits assumed): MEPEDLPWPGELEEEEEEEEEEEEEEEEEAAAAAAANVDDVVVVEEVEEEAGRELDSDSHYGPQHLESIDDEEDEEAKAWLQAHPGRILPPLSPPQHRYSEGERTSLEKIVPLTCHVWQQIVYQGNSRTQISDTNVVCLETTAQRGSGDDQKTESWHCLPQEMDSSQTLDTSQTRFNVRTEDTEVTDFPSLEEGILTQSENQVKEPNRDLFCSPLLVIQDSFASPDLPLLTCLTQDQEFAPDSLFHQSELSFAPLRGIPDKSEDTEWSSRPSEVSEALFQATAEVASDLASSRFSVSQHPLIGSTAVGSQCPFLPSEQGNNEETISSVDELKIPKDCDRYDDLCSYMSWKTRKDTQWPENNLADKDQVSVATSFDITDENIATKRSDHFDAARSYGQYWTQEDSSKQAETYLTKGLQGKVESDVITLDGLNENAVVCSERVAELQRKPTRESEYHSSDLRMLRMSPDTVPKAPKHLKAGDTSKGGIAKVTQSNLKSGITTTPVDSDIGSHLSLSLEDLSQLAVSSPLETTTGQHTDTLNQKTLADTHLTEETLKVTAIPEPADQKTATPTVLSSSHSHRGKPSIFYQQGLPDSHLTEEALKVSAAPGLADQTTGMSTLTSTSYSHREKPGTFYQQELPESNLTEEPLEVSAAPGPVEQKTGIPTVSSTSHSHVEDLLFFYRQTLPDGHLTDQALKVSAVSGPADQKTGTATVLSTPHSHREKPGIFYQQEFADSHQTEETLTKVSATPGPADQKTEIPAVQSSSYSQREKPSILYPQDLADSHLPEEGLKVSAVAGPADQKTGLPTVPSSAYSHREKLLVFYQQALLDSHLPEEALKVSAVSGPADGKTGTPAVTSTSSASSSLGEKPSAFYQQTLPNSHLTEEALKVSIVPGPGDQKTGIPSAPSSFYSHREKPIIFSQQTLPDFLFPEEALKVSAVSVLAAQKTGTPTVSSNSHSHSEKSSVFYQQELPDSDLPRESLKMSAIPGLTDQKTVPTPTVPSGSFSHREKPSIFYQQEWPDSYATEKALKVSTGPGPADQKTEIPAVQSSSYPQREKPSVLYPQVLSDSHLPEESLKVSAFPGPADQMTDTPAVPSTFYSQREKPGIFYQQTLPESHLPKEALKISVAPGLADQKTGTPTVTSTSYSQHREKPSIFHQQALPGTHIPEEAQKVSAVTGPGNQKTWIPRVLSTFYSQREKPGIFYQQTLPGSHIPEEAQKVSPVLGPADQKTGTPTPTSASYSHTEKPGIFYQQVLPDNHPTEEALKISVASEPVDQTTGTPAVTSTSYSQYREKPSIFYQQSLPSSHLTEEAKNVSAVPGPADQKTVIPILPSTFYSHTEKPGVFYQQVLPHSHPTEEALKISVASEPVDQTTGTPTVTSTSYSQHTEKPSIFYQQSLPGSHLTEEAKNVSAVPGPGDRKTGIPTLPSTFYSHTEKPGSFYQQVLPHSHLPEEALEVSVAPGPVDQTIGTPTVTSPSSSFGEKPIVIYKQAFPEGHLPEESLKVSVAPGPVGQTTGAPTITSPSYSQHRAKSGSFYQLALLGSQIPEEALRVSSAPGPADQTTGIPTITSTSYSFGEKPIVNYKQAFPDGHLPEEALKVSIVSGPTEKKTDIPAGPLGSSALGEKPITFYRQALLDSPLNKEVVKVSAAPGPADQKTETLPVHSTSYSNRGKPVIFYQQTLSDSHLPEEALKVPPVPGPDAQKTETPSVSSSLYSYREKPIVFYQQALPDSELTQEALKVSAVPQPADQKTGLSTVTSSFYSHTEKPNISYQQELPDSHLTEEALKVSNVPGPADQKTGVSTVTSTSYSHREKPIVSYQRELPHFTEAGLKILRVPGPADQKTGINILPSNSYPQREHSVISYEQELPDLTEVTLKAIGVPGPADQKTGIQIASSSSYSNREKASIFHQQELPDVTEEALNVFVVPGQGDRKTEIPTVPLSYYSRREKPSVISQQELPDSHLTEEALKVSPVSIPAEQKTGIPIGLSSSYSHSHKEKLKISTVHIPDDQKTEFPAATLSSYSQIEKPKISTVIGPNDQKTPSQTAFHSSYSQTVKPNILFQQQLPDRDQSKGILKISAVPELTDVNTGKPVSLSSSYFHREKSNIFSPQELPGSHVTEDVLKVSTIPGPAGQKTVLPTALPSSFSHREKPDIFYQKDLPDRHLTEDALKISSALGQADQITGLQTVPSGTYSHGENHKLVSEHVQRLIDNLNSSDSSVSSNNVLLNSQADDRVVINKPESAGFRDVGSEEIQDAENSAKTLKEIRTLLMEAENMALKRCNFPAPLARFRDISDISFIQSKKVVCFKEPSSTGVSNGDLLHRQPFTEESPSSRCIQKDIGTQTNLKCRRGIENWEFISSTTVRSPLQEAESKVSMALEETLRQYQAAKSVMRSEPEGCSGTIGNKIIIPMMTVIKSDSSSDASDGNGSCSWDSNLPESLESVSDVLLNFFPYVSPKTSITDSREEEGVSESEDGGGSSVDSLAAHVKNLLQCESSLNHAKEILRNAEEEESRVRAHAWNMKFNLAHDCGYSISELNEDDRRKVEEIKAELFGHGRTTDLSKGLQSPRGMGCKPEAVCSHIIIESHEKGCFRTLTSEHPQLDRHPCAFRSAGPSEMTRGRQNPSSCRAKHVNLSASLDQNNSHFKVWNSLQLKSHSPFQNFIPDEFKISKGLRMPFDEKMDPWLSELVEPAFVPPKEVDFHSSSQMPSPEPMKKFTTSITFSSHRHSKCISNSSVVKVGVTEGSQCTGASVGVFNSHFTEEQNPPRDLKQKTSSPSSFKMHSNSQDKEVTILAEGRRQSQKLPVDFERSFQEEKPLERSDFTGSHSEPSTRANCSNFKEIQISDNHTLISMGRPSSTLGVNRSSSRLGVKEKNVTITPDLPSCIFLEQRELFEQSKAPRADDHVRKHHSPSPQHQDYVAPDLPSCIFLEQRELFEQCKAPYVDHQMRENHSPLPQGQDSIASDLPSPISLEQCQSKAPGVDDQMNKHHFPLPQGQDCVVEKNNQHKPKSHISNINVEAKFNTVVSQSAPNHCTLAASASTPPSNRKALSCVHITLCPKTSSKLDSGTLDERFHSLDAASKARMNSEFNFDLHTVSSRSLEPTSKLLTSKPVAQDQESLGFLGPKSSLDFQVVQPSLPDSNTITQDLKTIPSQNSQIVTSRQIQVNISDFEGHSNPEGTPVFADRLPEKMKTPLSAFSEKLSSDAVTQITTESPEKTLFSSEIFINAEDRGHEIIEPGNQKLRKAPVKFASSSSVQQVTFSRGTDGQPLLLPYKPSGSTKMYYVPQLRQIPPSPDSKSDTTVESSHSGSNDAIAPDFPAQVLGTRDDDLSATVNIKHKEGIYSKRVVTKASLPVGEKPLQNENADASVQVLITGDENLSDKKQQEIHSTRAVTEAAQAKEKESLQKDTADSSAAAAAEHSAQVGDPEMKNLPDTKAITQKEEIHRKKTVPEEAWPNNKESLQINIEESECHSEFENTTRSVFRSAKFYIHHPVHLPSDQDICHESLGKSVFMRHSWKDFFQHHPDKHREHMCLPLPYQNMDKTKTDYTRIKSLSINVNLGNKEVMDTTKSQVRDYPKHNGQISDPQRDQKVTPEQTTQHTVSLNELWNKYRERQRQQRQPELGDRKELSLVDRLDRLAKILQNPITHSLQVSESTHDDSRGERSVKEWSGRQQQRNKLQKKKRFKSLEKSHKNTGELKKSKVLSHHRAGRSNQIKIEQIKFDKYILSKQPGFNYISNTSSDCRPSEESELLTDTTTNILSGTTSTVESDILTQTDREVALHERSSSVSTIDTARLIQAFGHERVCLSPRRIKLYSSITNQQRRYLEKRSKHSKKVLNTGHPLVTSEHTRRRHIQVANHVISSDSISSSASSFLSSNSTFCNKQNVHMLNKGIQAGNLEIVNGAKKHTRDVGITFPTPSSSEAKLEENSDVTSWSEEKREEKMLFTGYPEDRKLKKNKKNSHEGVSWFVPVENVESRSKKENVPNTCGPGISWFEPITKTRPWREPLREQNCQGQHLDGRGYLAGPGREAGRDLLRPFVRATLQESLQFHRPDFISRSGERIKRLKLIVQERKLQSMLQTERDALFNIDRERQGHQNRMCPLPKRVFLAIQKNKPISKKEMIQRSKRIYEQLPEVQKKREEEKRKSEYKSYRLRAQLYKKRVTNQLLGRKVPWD

Consider “min-αPKC-FLAG (ALMS1-interacting domain of human PKCα with N-terminal FLAG tag) (from UniProt P05696 336-672)”, for which the 2-NBDG absorption in mature adipocytes in absence of INS (times (vs control)) was found to be 3.5.
